Data as given in PMC3034293 (Biochemistry, 2011).

Target: the molecule itself
Assay: SEC

B1: Wild-type aldolase B (enzyme, human, UniProt P05062 1-364, looked up)
chain: MAHRFPALTQEQKKELSEIAQSIVANGKGILAADESVGTMGNRLQRIKVENTEENRRQFREILFSVDSSINQSIGGVILFHETLYQKDSQGKLFRNILKEKGIVVGIKLDQGGAPLAGTNKETTIQGLDGLSERCAQYKKDGVDFGKWRAVLRIADQCPSSLAIQENANALARYASICQQNGLVPIVEPEVIPDGDHDLEHCQYVTEKVLAAVYKALNDHHVYLEGTLLKPNMVTAGHACTKKYTPEQVAMATVTALHRTVPAAVPGICFLSGGMSEEDATLNLNAINLCPLPKPWKLSFSYGRALQASALAAWGGKAANKEATQEAFMKRAMANCQAAKGQYVHTGSSGAASTQSLFTACYTY
With B1 the “stoichiometry N” value was 4.
